This is an account of results in the supplement of paper PMC9112550, “Optimization of the antimicrobial peptide Bac7 by deep mutational scanning” (BMC Biology, 2022).
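Also: peptides expressed intracellularly from a pBAD plasmid library in pooled LB shake-flask culture, induced with 0.3% L-arabinose, DNA abundance read by NGS, three biological replicates, DESeq2 with apeglm shrinkage.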

The subject of this data set is Escherichia coli TOP10. In words: shrunken log2 fold change of peptide-encoding DNA abundance (4.5 h post-induction vs induction); higher = less antimicrobial activity (less host growth inhibition). As to conditions: time post-induction: 4.5 h; library: site-saturation at positions 5, 18, 19, 20.
RRIRNRPPRLPRPRPRPIEMPRP: the “shrunken log2 fold change” value was -0.141.

As for RRIRIRPPRLPRPRPRPVLYPRP, the “shrunken log2 fold change” value was -0.598.

As for RRIRRRPPRLPRPRPRPFYNPRP, the “shrunken log2 fold change” value is -0.139.

Regarding RRIRKRPPRLPRPRPRPQRYPRP, the “shrunken log2 fold change” value is 0.132.

On to RRIRERPPRLPRPRPRPEEHPRP, for which the “shrunken log2 fold change” value is -0.0183.

As for RRIRERPPRLPRPRPRPLPYPRP, the “shrunken log2 fold change” value was -0.345.

On to RRIRFRPPRLPRPRPRPWYDPRP, for which the “shrunken log2 fold change” value was determined as 0.13.

Turning to RRIRFRPPRLPRPRPRPVDTPRP, the “shrunken log2 fold change” value was -0.123.

With RRIRLRPPRLPRPRPRPAKVPRP, the “shrunken log2 fold change” value was -0.0169.

On to RRIRDRPPRLPRPRPRPMAGPRP, for which the “shrunken log2 fold change” value was 0.00396.

For the sequence RRIRHRPPRLPRPRPRPFTCPRP, the “shrunken log2 fold change” value was -0.231.

For RRIRDRPPRLPRPRPRPINCPRP, the “shrunken log2 fold change” value was -0.0287.

As to RRIRDRPPRLPRPRPRPWCPPRP, the “shrunken log2 fold change” value is -0.422.

As to RRIRIRPPRLPRPRPRPHHGPRP, the “shrunken log2 fold change” value was -0.0784.

Consider RRIRLRPPRLPRPRPRPMMTPRP, for which the “shrunken log2 fold change” value was -0.042.

RRIRQRPPRLPRPRPRPYQYPRP: the “shrunken log2 fold change” value was -0.016.

Turning to RRIRRRPPRLPRPRPRPVGIPRP, the “shrunken log2 fold change” value was determined as 0.12.

RRIRDRPPRLPRPRPRPPGCPRP: the “shrunken log2 fold change” value is -0.0092.

On to RRIRARPPRLPRPRPRPGNRPRP, for which the “shrunken log2 fold change” value amounted to 0.0467.

On to RRIRLRPPRLPRPRPRPHYEPRP, for which the “shrunken log2 fold change” value is -0.762.

RRIRYRPPRLPRPRPRPQFSPRP: the “shrunken log2 fold change” value was determined as 0.0125.

On to RRIRNRPPRLPRPRPRPGMWPRP, for which the “shrunken log2 fold change” value was determined as 0.397.

As for RRIRARPPRLPRPRPRPNYSPRP, the “shrunken log2 fold change” value is -0.502.

For RRIRHRPPRLPRPRPRPSTFPRP, the “shrunken log2 fold change” value is -0.0458.

As for RRIRYRPPRLPRPRPRPVHTPRP, the “shrunken log2 fold change” value was -0.562.

In the case of RRIRIRPPRLPRPRPRPIKYPRP, the “shrunken log2 fold change” value was -2.06.

Turning to RRIRCRPPRLPRPRPRPIRAPRP, the “shrunken log2 fold change” value is -0.0291.

For the sequence RRIRCRPPRLPRPRPRPIYCPRP, the “shrunken log2 fold change” value is -0.14.

With RRIRWRPPRLPRPRPRPCMTPRP, the “shrunken log2 fold change” value is 0.317.

For RRIRDRPPRLPRPRPRPVLFPRP, the “shrunken log2 fold change” value worked out at 0.13.

As for RRIRTRPPRLPRPRPRPHNDPRP, the “shrunken log2 fold change” value was -1.58.

As to RRIRFRPPRLPRPRPRPLKCPRP, the “shrunken log2 fold change” value was -0.189.

As to RRIRIRPPRLPRPRPRPDQMPRP, the “shrunken log2 fold change” value was -0.393.

As to RRIRTRPPRLPRPRPRPHLAPRP, the “shrunken log2 fold change” value stood at 0.159.

On to RRIRGRPPRLPRPRPRPISSPRP, for which the “shrunken log2 fold change” value was 0.393.

Take RRIRYRPPRLPRPRPRPVKGPRP: the “shrunken log2 fold change” value is -0.015.

Consider RRIRQRPPRLPRPRPRPGGVPRP, for which the “shrunken log2 fold change” value stood at 0.463.

As for RRIRPRPPRLPRPRPRPHPKPRP, the “shrunken log2 fold change” value was found to be 0.347.

Regarding RRIRFRPPRLPRPRPRPQVDPRP, the “shrunken log2 fold change” value was -0.412.

Take RRIRLRPPRLPRPRPRPTAAPRP: the “shrunken log2 fold change” value came out at 0.897.

For RRIRSRPPRLPRPRPRPRTEPRP, the “shrunken log2 fold change” value stood at 0.00553.

With RRIRYRPPRLPRPRPRPFNYPRP, the “shrunken log2 fold change” value was found to be 0.0209.

In the case of RRIRSRPPRLPRPRPRPGSYPRP, the “shrunken log2 fold change” value is -0.0952.

In the case of RRIRHRPPRLPRPRPRPLCWPRP, the “shrunken log2 fold change” value was -0.0222.

On to RRIRYRPPRLPRPRPRPWTEPRP, for which the “shrunken log2 fold change” value was -0.0689.

As for RRIRGRPPRLPRPRPRPQKPPRP, the “shrunken log2 fold change” value was found to be 0.0894.

In the case of RRIRVRPPRLPRPRPRPTSPPRP, the “shrunken log2 fold change” value came to 0.0262.

On to RRIRLRPPRLPRPRPRPWCMPRP, for which the “shrunken log2 fold change” value is -0.408.

Take RRIRMRPPRLPRPRPRPTCQPRP: the “shrunken log2 fold change” value is -0.049.

On to RRIRWRPPRLPRPRPRPYHEPRP, for which the “shrunken log2 fold change” value was -0.123.

RRIRHRPPRLPRPRPRPGHFPRP: the “shrunken log2 fold change” value worked out at 0.0387.

For RRIRRRPPRLPRPRPRPQFVPRP, the “shrunken log2 fold change” value stood at 0.153.

Consider RRIRTRPPRLPRPRPRPSMNPRP, for which the “shrunken log2 fold change” value was -0.28.

Turning to RRIRVRPPRLPRPRPRPWYMPRP, the “shrunken log2 fold change” value is -0.132.

Turning to RRIRARPPRLPRPRPRPSKAPRP, the “shrunken log2 fold change” value is -0.151.

RRIRLRPPRLPRPRPRPECGPRP: the “shrunken log2 fold change” value is 0.372.

As to RRIRRRPPRLPRPRPRPMQMPRP, the “shrunken log2 fold change” value is 0.54.

Take RRIRFRPPRLPRPRPRPGESPRP: the “shrunken log2 fold change” value is -0.00672.

Turning to RRIRRRPPRLPRPRPRPPEGPRP, the “shrunken log2 fold change” value stood at 0.657.

On to RRIRTRPPRLPRPRPRPPLCPRP, for which the “shrunken log2 fold change” value was determined as 0.0694.

With RRIRPRPPRLPRPRPRPPQDPRP, the “shrunken log2 fold change” value came to 0.523.

RRIRERPPRLPRPRPRPKTYPRP: the “shrunken log2 fold change” value is -0.771.

For RRIRCRPPRLPRPRPRPTNVPRP, the “shrunken log2 fold change” value was -0.154.

Regarding RRIRCRPPRLPRPRPRPAVPPRP, the “shrunken log2 fold change” value is 0.073.

For the sequence RRIRCRPPRLPRPRPRPYPAPRP, the “shrunken log2 fold change” value is -0.53.

Take RRIRGRPPRLPRPRPRPRPLPRP: the “shrunken log2 fold change” value came to 0.902.

As to RRIRSRPPRLPRPRPRPTPWPRP, the “shrunken log2 fold change” value amounted to 0.349.

For the sequence RRIRFRPPRLPRPRPRPKHRPRP, the “shrunken log2 fold change” value was -0.094.

For the sequence RRIRDRPPRLPRPRPRPDPIPRP, the “shrunken log2 fold change” value worked out at 0.278.

For RRIRDRPPRLPRPRPRPIFVPRP, the “shrunken log2 fold change” value came out at 0.0563.

With RRIRPRPPRLPRPRPRPASGPRP, the “shrunken log2 fold change” value was 0.194.

For RRIRSRPPRLPRPRPRPTSQPRP, the “shrunken log2 fold change” value stood at 0.0259.

Regarding RRIRYRPPRLPRPRPRPIRIPRP, the “shrunken log2 fold change” value is -0.144.

As for RRIRFRPPRLPRPRPRPVQFPRP, the “shrunken log2 fold change” value was -0.652.

On to RRIRSRPPRLPRPRPRPFHTPRP, for which the “shrunken log2 fold change” value is -0.232.

Take RRIRPRPPRLPRPRPRPWAVPRP: the “shrunken log2 fold change” value was -0.227.

Take RRIRIRPPRLPRPRPRPGVQPRP: the “shrunken log2 fold change” value was -0.00174.

In the case of RRIRCRPPRLPRPRPRPSAFPRP, the “shrunken log2 fold change” value came to 0.426.

RRIRQRPPRLPRPRPRPIEIPRP: the “shrunken log2 fold change” value is -0.0062.

With RRIRIRPPRLPRPRPRPLWCPRP, the “shrunken log2 fold change” value is -0.067.

Consider RRIRLRPPRLPRPRPRPPLSPRP, for which the “shrunken log2 fold change” value is -0.00759.

As to RRIRCRPPRLPRPRPRPYESPRP, the “shrunken log2 fold change” value turned out to be 0.0203.

For RRIRQRPPRLPRPRPRPLPVPRP, the “shrunken log2 fold change” value was determined as 0.21.

With RRIRERPPRLPRPRPRPLHIPRP, the “shrunken log2 fold change” value is -0.404.

Turning to RRIRSRPPRLPRPRPRPLRFPRP, the “shrunken log2 fold change” value is 0.926.

As to RRIRMRPPRLPRPRPRPPIRPRP, the “shrunken log2 fold change” value was found to be 0.248.

For RRIRSRPPRLPRPRPRPHWLPRP, the “shrunken log2 fold change” value was -0.614.

Turning to RRIRKRPPRLPRPRPRPQCSPRP, the “shrunken log2 fold change” value worked out at 0.136.

As to RRIRPRPPRLPRPRPRPRGIPRP, the “shrunken log2 fold change” value is -0.176.

With RRIRYRPPRLPRPRPRPVDDPRP, the “shrunken log2 fold change” value is -0.443.

In the case of RRIRKRPPRLPRPRPRPLRDPRP, the “shrunken log2 fold change” value stood at 0.757.
